In patent publication US20210252150A1:
Substitutions are numbered along the chain they refer to. Names and notes keep the numbering of the source.

B1: rFluA-20 heavy chain mutant Y34A (antibody, V domains shown)
VH: QVQLQESGPGLVKPSETLSLTCSVSGVSVTSDIAYWTWIRQPPGKGLEWIGYIFYNGDTNYNPSLKSRVTMSIDTSKNEFSLRLTSVTAADTAVYFCARGTEDLGYCSSGSCPNHWGQGTLVTVSS
VL: DIQMTQSPSSLSASIGDRVTITCRPSQNIRSFLNWFQHKPGKAPKLLIYAASNLQSGVPSRFSGSGSGTEFTLTIRSLQPEDFATYYCQQSYNTPPTFGQGTKVEIK
B2: rFluA-20 heavy chain mutant E97A (antibody, V domains shown)
VH: B1 VH with A34Y, E102A
VL: B1 VL
B3: rFluA-20 heavy chain mutant T96A (antibody, V domains shown)
VH: B1 VH with A34Y, T101A
VL: B1 VL

Target: HA of A/Solomon Islands/03/2006 (H1N1) (influenza A virus (H1N1))

First: B1
Second: B2
The EC50 of the first is 1.8-fold lower: 0.04 µg/mL for the first, 0.07 µg/mL for the second.

Binder B3 has an EC50 of 0.03 µg/mL.

Target: HA of A/Texas/36/1991 (H1N1) (influenza A virus (H1N1))

B1 and B2 are the same in EC50: 0.05 µg/mL for the first, 0.05 µg/mL for the second.

B3 was tested, and the EC50 was 0.04 µg/mL.

Target: HA of A/Texas/50/2012 (H3N2) (influenza A virus (H3N2))

B1 and B2 are within 1.5-fold of each other in EC50: 0.16 µg/mL for the first, 0.18 µg/mL for the second.

In the case of B3, the EC50 is reported as 0.07 µg/mL.
